Measured values taken from publication PMC3998870 (Nature, 2014).

B5: VirB10/TrwE with a C-terminal StrepII tag (natural protein, Escherichia coli plasmid R388, UniProt O50337 1-395, looked up)
chain: MFGRKKGDVIDAGAELERAEQERIEGEYGASELASERRPHTPGARTLLMVLLCVIAVVLVTLSYKAYKVRGVVEDDDAQPQQVVRQVIPGYTPRPIRPEPENVPEPPQPTTSVPAIQPAPVTQPVRPQPTGPREKTPYELARERMLRSGLTAGSGGGEDLPRPQGGDVPAGGLMGGGGGGGELAEKLQPMRLSGSSAGRLGNRDMLITQGTQLDCVLETRLVTTQPGMTTCHLTRDVYSTSGRVVLLDRGSKVVGFYQGGLRQGQARIFVQWSRIETPSGVVINLDSPGTGPLGEAGLGGWIDRHFWERFGGAIMISLIGDLGDWASRQGSRQGNNSIQFSNTANGVESAAAEALRNSINIPPTLYKNQGERVNILVARDLDFSDVYSLESIPTK

Key:
[1] = biological target: VirB10/TrwE with a C-terminal StrepII tag (Escherichia coli plasmid R388) (UniProt O50337); experiment: tandem affinity purification with 125I labelling of tyrosines and SDS-PAGE
[2] = biological target: VirB4/TrwK (untagged, in the T4SS3-10 complex) (Escherichia coli plasmid R388) (UniProt O50330); experiment: negative stain EM reconstruction
[3] = biological target: T1, VirB4/TrwK with a C-terminal StrepII tag (Escherichia coli plasmid R388, UniProt O50330 1-823); experiment: SEC
T1 sequence (looked up): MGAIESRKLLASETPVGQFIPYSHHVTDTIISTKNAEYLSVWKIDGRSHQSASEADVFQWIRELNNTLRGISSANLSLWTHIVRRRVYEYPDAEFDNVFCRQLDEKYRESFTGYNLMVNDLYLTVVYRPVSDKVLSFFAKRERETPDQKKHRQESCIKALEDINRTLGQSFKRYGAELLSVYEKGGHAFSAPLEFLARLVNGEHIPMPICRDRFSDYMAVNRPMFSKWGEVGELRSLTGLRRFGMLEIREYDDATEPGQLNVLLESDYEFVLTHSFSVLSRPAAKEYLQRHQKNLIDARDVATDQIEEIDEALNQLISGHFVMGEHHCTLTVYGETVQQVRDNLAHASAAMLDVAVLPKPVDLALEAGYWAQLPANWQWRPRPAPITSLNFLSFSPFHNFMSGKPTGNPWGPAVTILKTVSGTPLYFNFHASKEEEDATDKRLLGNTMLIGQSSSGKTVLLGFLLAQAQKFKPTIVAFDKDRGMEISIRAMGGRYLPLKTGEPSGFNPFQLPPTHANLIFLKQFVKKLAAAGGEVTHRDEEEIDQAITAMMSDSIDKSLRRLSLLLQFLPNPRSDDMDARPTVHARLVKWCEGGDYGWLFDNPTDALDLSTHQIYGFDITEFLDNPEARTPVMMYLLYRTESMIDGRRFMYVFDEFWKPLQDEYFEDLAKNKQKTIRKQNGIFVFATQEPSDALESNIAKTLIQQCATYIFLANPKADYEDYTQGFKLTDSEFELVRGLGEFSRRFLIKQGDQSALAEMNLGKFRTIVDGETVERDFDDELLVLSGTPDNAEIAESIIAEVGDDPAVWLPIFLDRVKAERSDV

[4] = biological target: B5; experiment: tandem affinity purification with 125I labelling of tyrosines and SDS-PAGE
co-purification = biological target: the molecule itself; experiment: co-purification

VirB6/TrwI with an N-terminal His6 tag (natural protein)
copies in the complex, calibrated on 14 copies of VirB10/TrwE [1]: 23.8 copies

VirB4/TrwK (untagged, in the T4SS3-10 complex) (from UniProt O50330 1-823) (enzyme)
stoichiometry N [2]: 6

B1: VirB3/TrwM (natural protein, Escherichia coli plasmid R388, UniProt O50329 1-104, looked up)
chain: MKPPQQQHEAFPLFKGATRLPTILGEPMIPLMAMVMGVAVIALTVSIWWWALVPPLWFIMAQITKNDDKAFRIWWLWIDTKFRNRNKGFWGASSYSPANYRKRR
stoichiometry N [3]: 1

B2: VirB5/TrwJ (natural protein, Escherichia coli plasmid R388, UniProt O50331 23-226, looked up)
chain: QGIPVFDGTRALDFVQQFARMKEQLDTAKDQLAEAQRMYEAVTGGRGLGDLMRNAQLREYLPDDLRTVYDSANGGGYSGISGSINDILRDERLNGSVADMRRSIEERSRTARTTDKAVGCGPTKGHSNASRRLKDEISRTQDQKAIEELQARIAGEQAAIQNETTKLQMIAQLRQAEQALISEQRRERNMPILSSGNQGMPTIQ
copies in the complex, calibrated on 14 copies of VirB10/TrwE [4]: 11.9 copies

B3: VirB8/TrwG (natural protein, Escherichia coli plasmid R388, UniProt O50335 1-231, looked up)
chain: MSKKQPKPVKAEQLKSYYEESRGLERDLIGEFVKSRKTAWRVATASGLFGLLGMVCGIVGFSQPAPAPLVLRVDNATGAVDVVTTLREHESSYGEVVDTYWLNQYVLNREAYDYNTIQMNYDTTALLSAPAVQQDYYKLFDGSNARDRVLGNKARITVRVRSIQPNGRGQATVRFTTQQHNSNGTVERPQHQIATIGYTYIGAPMRSSDRLLNPLGFQVTSYRADPEILNN
copies in the complex, calibrated on 14 copies of VirB10/TrwE [4]: 12.6 copies

B4: VirB4/TrwK (untagged, in the T4SS3-10 complex) (enzyme, Escherichia coli plasmid R388, UniProt O50330 1-823, looked up)
chain: MGAIESRKLLASETPVGQFIPYSHHVTDTIISTKNAEYLSVWKIDGRSHQSASEADVFQWIRELNNTLRGISSANLSLWTHIVRRRVYEYPDAEFDNVFCRQLDEKYRESFTGYNLMVNDLYLTVVYRPVSDKVLSFFAKRERETPDQKKHRQESCIKALEDINRTLGQSFKRYGAELLSVYEKGGHAFSAPLEFLARLVNGEHIPMPICRDRFSDYMAVNRPMFSKWGEVGELRSLTGLRRFGMLEIREYDDATEPGQLNVLLESDYEFVLTHSFSVLSRPAAKEYLQRHQKNLIDARDVATDQIEEIDEALNQLISGHFVMGEHHCTLTVYGETVQQVRDNLAHASAAMLDVAVLPKPVDLALEAGYWAQLPANWQWRPRPAPITSLNFLSFSPFHNFMSGKPTGNPWGPAVTILKTVSGTPLYFNFHASKEEEDATDKRLLGNTMLIGQSSSGKTVLLGFLLAQAQKFKPTIVAFDKDRGMEISIRAMGGRYLPLKTGEPSGFNPFQLPPTHANLIFLKQFVKKLAAAGGEVTHRDEEEIDQAITAMMSDSIDKSLRRLSLLLQFLPNPRSDDMDARPTVHARLVKWCEGGDYGWLFDNPTDALDLSTHQIYGFDITEFLDNPEARTPVMMYLLYRTESMIDGRRFMYVFDEFWKPLQDEYFEDLAKNKQKTIRKQNGIFVFATQEPSDALESNIAKTLIQQCATYIFLANPKADYEDYTQGFKLTDSEFELVRGLGEFSRRFLIKQGDQSALAEMNLGKFRTIVDGETVERDFDDELLVLSGTPDNAEIAESIIAEVGDDPAVWLPIFLDRVKAERSDV
copies in the complex, calibrated on 14 copies of VirB10/TrwE [4]: 11.5 copies

B5
stoichiometry N (co-purification): 14
